Laboratory results from the supplement of paper PMC10724198.

Experiments:
[1] = test system: Saccharomyces cerevisiae; test: protein stability index of tFT-peptide fusion in wild type (PSI (0-1 scale)); higher = more stable (slower turnover); details: genetic background: wild type
[2] = test system: Saccharomyces cerevisiae; test: protein stability index of tFT-peptide fusion in deletion strain of DOA10 (PSI (0-1 scale)); higher = more stable (slower turnover)
Procedure: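 MPS profiling in S. cerevisiae of two library types built from selected 12-aa C-degron peptides (IN1, IN2, LN1, LN3, VN2, R1-R5, W1-W3, Atg1 and Rpa12 C-termini): saturation mutagenesis libraries and C-terminal +1 capping libraries (13 aa). Each peptide is fused to the C-terminus of a sfGFP-mCherry timer, after a GGGS linker. Cells are FACS-sorted into 8 mCherry/sfGFP bins and sequenced. PSI runs from 0 (unstable) to 1 (stable), measured once in wild type and in the das1Δ or doa10Δ background.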
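Throughout, for protein stability index of tFT-peptide fusion in deletion strain of DOA10: PSI per variant is the weighted mean of its sequencing read distribution over the sorted stability bins, counting only variants with over 10 reads summed across bins.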
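Throughout, for protein stability index of tFT-peptide fusion in wild type: PSI derived as read-weighted mean over the 8 sorting bins, only variants exceeding 10 total reads kept, mCherry placed adjacent to the peptide and sfGFP distal.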

| Sequence | protein stability index [1] | protein stability index [2] |
| --- | --- | --- |
| CLVSLPILLFQR | 0.515 | 0.583 |
| CLVSLPILLNFR | 0.424 | 0.655 |
| CLVSLPILLWFR | 0.0579 | 0.567 |
| CLVSLPIWLFFR | 0.0275 | 0.58 |
| CLVSRPILLFFR | 0.115 | 0.638 |
| CLVTLPILLFFR | 0.048 | 0.576 |
| CLVYLPILLFFR | 0.0623 | 0.404 |
| CLYMCSVGCWFR | 0.276 | 0.584 |
| CTVSLPILLFFR | 0.0564 | 0.619 |
| DSLRVLLPLYFR | 0.33 | 0.676 |
| GITLPMCPLLLR | 0.099 | 0.668 |
| GLKMCSVGCWFR | 0.247 | 0.678 |
| GLYMCKVGCWFR | 0.396 | 0.631 |
| GLYMCSIGCWFR | 0.231 | 0.602 |
| GLYMCSKGCWFR | 0.489 | 0.673 |
| GLYMCSVECWFR | 0.456 | 0.465 |
| GLYMCSVGCWFQ | 0.476 | 0.504 |
| GLYMCSVGCWFRY | 0.173 | 0.619 |
| GLYMCSVGCWFV | 0.4 | 0.467 |
| GLYMCSVGCWKR | 0.612 | 0.66 |
| GLYMCSVGCWSR | 0.584 | 0.622 |
| GLYMCSVGCWYR | 0.407 | 0.611 |
| GLYMCSVGTWFR | 0.514 | 0.668 |
| GLYMCSVGVWFR | 0.198 | 0.453 |
| GLYMCSVVCWFR | 0.253 | 0.314 |
| GLYMCSWGCWFR | 0.296 | 0.665 |

| Sequence | protein stability index [1] | protein stability index [2] |
| --- | --- | --- |
| GLYMKSVGCWFR | 0.257 | 0.673 |
| GLYNCSVGCWFR | 0.414 | 0.674 |
| GLYRCSVGCWFR | 0.428 | 0.67 |
| GVYMCSVGCWFR | 0.276 | 0.622 |
| GYYMCSVGCWFR | 0.227 | 0.643 |
| LITLPMCPLLLR | 0.349 | 0.626 |
| NVTRLDAIYFRI | 0.379 | 0.711 |
| RGLRVLLPLYFR | 0.378 | 0.673 |
| RGTRLDAIYFRI | 0.57 | 0.684 |
| RSHRVLLPLYFR | 0.317 | 0.651 |
| RSLEVLLPLYFR | 0.219 | 0.691 |
| RSLNVLLPLYFR | 0.266 | 0.669 |
| RSLQVLLPLYFR | 0.264 | 0.675 |
| RSLRGLLPLYFR | 0.444 | 0.696 |
| RSLRRLLPLYFR | 0.466 | 0.683 |
| RSLRVCLPLYFR | 0.194 | 0.671 |
| RSLRVLHPLYFR | 0.218 | 0.701 |
| RSLRVLLNLYFR | 0.397 | 0.659 |
| RSLRVLLPEYFR | 0.653 | 0.677 |
| RSLRVLLPFYFR | 0.564 | 0.668 |
| RSLRVLLPIYFR | 0.242 | 0.663 |
| RSLRVLLPLNFR | 0.535 | 0.671 |
| RSLRVLLPLPFR | 0.64 | 0.676 |
| RSLRVLLPLYFRM | 0.202 | 0.411 |
| RSLRVLLPLYQR | 0.617 | 0.659 |
| RSLRVLLPLYRR | 0.624 | 0.673 |

| Sequence | protein stability index [1] | protein stability index [2] |
| --- | --- | --- |
| RSLRVLLQLYFR | 0.383 | 0.606 |
| RSLRVVLPLYFR | 0.178 | 0.679 |
| RSLSVLLPLYFR | 0.289 | 0.682 |
| RTLRVLLPLYFR | 0.304 | 0.657 |
| RTTRLDAIYFRI | 0.498 | 0.658 |
| RVGRLDAIYFRI | 0.412 | 0.647 |
| RVTRADAIYFRI | 0.525 | 0.684 |
| RVTRDDAIYFRI | 0.652 | 0.684 |
| RVTRLDADYFRI | 0.686 | 0.722 |
| RVTRLDAEYFRI | 0.675 | 0.693 |
| RVTRLDAFYFRI | 0.644 | 0.713 |
| RVTRLDAIIFRI | 0.499 | 0.703 |
| RVTRLDAIYDRI | 0.696 | 0.731 |
| RVTRLDAIYFGI | 0.682 | 0.721 |
| RVTRLDAIYFRID | 0.54 | 0.603 |
| RVTRLDAIYGRI | 0.69 | 0.724 |
| RVTRLDAIYSRI | 0.702 | 0.737 |
| RVTRLDATYFRI | 0.661 | 0.69 |
| RVTRLDDIYFRI | 0.689 | 0.731 |
| RVTRLDTIYFRI | 0.423 | 0.69 |
| RVTYLDAIYFRI | 0.393 | 0.563 |
| RYTRLDAIYFRI | 0.421 | 0.673 |
| VITLPMCPLLLR | 0.303 | 0.615 |
| YITLPMCPLLLR | 0.337 | 0.616 |
| YLYMCSVGCWFR | 0.317 | 0.586 |
| YVTRLDAIYFRI | 0.185 | 0.603 |
